Data taken from patent US12449421 (SICHUAN CANCER HOSPITAL, dated 2025).

T1: recombinant human CD79B extracellular domain (amino acids 29-159), huCD79B (human, UniProt P40259 29-159)
T1 construct: Immunogen and SPR analyte; No tag or fusion partner is stated; also called human CD79B antigen; CD79B antigen
T1 sequence: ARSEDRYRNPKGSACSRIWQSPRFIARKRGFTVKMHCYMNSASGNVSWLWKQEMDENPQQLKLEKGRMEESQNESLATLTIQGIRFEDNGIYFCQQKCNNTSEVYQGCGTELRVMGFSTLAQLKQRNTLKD


Tests used:
[1] = biological target: recombinant human CD79B extracellular domain (amino acids 29-159), huCD79B (human) (UniProt P40259); assay: Biacore SPR, antibody captured on Protein A chip, huCD79B as analyte, 1:1 kinetic model
[2] = biological target: CD79B protein as expressed in Daudi cells and diffuse large B-cell lymphoma tissue (UniProt P40259); assay: immunohistochemistry on 69 diffuse large B-cell lymphoma tissue cases; share of cases stained positive
[3] = biological target: T1, recombinant human CD79B extracellular …; assay: Biacore SPR, antibody captured on Protein A chip, huCD79B as analyte, 1:1 kinetic model
Protocol: The ability of the antibody to bind to the antigen is characterized using Biacore™ Surface Plasmon Resonance (SPR). Specifically, a Protein A chip was used (with channel 1 as the reference channel and channel 2 as the ligand channel). The antibody was immobilized as the ligand in channel 2 of the Protein A chip at a concentration of 10 µg/ml, with an association time of 30 seconds and a flow rate of […].
In this embodiment, the analyte was flowed through both channel 1 and channel 2, with an association time of 60 seconds, a dissociation time of 90 seconds, and a flow rate of 30 µl/min. After the analyte injection was completed, the chip surface was regenerated using glycine buffer with a pH of 1.5. The ligand was immobilized before each analyte injection, and the chip surface was regenerated with the regeneration solution after the analyte injection was completed.
The affinity of the CD79B antibody for human CD79B antigen at the different concentrations mentioned above was determined using Biacore™ SPR. The corresponding analysis software was used to analyze the binding and dissociation with a 1:1 kinetic model.

Kd [1] [nM]	koff [1] [s⁻¹]	kon [1] [M⁻¹ s⁻¹]	Pos. Rate (share of IHC-positive cases) [2] [%]	Kd [3] [nM]	koff [3] [s⁻¹]	kon [3] [M⁻¹ s⁻¹]	Molecule
19.3	0.00547	283000	100				commercially available CD79B antibody (Abcam, EPR6861)
				0.877	0.000775	844000	LBP2-CD79B (anti-CD79B recombinant rabbit monoclonal antibody) (antibody, V domains shown, the light chain variable region begins QVLTQTP; also called Anti-CD79B Protein Monoclonal Antibody; LBP2-CD79B monoclonal antibody) VH: QSLEESGGRLVTPGGSLTLTCTVSGIDLSTNVMRWVRQAPGKGLEWIGSMLISGNIYYASWAKGRLTISKTSSTTVDLKMTSLTAADTATYFCTRGRLWGQGTLVTVSS VL: AQVLTQTPSSVSAAVGGTVTINCQSSQSVWANNYLAWYQQKPGQPPKILIASASTLASGVSSRFKGSGSGTQFTLTISDVQCDDAATYYCLGSYDCSSADCNAFGGGTEVVVKG
